Test results reported in patent US20200249231.

Assays:
[1] = target: T1, YKYKY (5-mer on peptide array)
T1 chain: YKYKY

[2] = target: T2, EYWLQ (5-mer on peptide array)
T2 chain: EYWLQ

[3] = target: T3, RYRSK (5-mer on peptide array)
T3 chain: RYRSK

[4] = target: T4, RYESK (5-mer on peptide array)
T4 chain: RYESK

[5] = target: T5, RFSQR (5-mer on peptide array)
T5 chain: RFSQR

[6] = target: T6, YRQRA (5-mer on peptide array)
T6 chain: YRQRA

[7] = target: T7, RWKFK (5-mer on peptide array)
T7 chain: RWKFK

[8] = target: T8, VRYRQ (5-mer on peptide array)
T8 chain: VRYRQ

[9] = target: T9, EYVLQ (5-mer on peptide array)
T9 chain: EYVLQ

[10] = target: T10, VRQRQ (5-mer on peptide array)
T10 chain: VRQRQ

Z-[GGGYKGRGGGGG] = target: T11, Z-[GGGYKGRGGGGG]
T11 chain: GGGYKGRGGGGG

[11] = target: T12, DYALQ (5-mer on peptide array)
T12 chain: DYALQ

Z-[GGGFRQRQGGGG] = target: T13, Z-[GGGFRQRQGGGG]
T13 chain: GGGFRQRQGGGG

Z-[GGGRQRQRGGGG] = target: T14, Z-[GGGRQRQRGGGG]
T14 chain: GGGRQRQRGGGG

[12] = target: T15, FYESK (5-mer on peptide array)
T15 chain: FYESK

[13] = target: T16, AYRTK (5-mer on peptide array)
T16 chain: AYRTK

[14] = target: T17, YKGRG (5-mer on peptide array)
T17 chain: YKGRG

[15] = target: T18, FRQRQ (5-mer on peptide array)
T18 chain: FRQRQ

[16] = target: T19, PRYRQ (5-mer on peptide array)
T19 chain: PRYRQ

[17] = target: T20, YRYAK (5-mer on peptide array)
T20 chain: YRYAK

[18] = target: T21, YKYNK (5-mer on peptide array)
T21 chain: YKYNK

[19] = target: T22, RYSKY (5-mer on peptide array)
T22 chain: RYSKY

[20] = target: T23, EWVAQ (5-mer on peptide array)
T23 chain: EWVAQ

Z-[GGGQYRQRGGGG] = target: T24, Z-[GGGQYRQRGGGG]
T24 chain: GGGQYRQRGGGG

[21] = target: T25, DYWLQ (5-mer on peptide array)
T25 chain: DYWLQ

B1: Kutzneria albida microbial transglutaminase, activated enzyme (KalbTGt3) (protein)
chain: APLAPPLAEDRSYRTWRVEDYVEAWERYHGREMTEDERENLARGCIGVTVVNLNREDLSNPPLNLSFGSLRTAEAVQAALNKIVDTHPSPAQYEAAVAKDPILKRLKNVVKALPSWIDSAKLKASIFSKRFYSWQNPDWSEERAHTTYRPDRETDQVDMSTYRYRARPGYVNFDYGWFDQDTNTWWHANHEEPRMVVYQSTLRHYSRPLQDFDEQVFTVAFAKKDGGGSGHHHHHHHH
- 5-mer peptide array, incorporation of biotinylated glutamine donor Z-APRYRQRAAGGG-PEG-biotin [1]: the top 17 lysine-donor substrates identified on the 5-mer peptide array with KalbTG
- 5-mer peptide array signal with KalbTG [2]: exhibited relatively lower signal on the KalbTG array
- Array signal (log2) [3]: 12.4 log2
- 5-mer peptide array, incorporation of biotinylated glutamine donor Z-APRYRQRAAGGG-PEG-biotin [4]: the top 17 lysine-donor substrates identified on the 5-mer peptide array with KalbTG
- Array signal (log2) [4]: 12.7 log2
- 5-mer peptide array, incorporation of biotinylated amine donor [5]: the top 22 glutamine-donor substrates identified on the 5-mer peptide array with KalbTG
- 5-mer peptide array, incorporation of biotinylated amine donor [6]: the top 22 glutamine-donor substrates identified on the 5-mer peptide array with KalbTG
- 5-mer peptide array, incorporation of biotinylated glutamine donor Z-APRYRQRAAGGG-PEG-biotin [7]: the top 17 lysine-donor substrates identified on the 5-mer peptide array with KalbTG
- 5-mer peptide array, incorporation of biotinylated amine donor [8]: the top 22 glutamine-donor substrates identified on the 5-mer peptide array with KalbTG
- 5-mer peptide array signal with KalbTG [9]: exhibited relatively lower signal on the KalbTG array
- 5-mer peptide array, incorporation of biotinylated amine donor [10]: the top 22 glutamine-donor substrates identified on the 5-mer peptide array with KalbTG
- Reaction Rate in Solution (pmol s^-1), GLDH-coupled assay with 200 µM glutamine donor (Z-[GGGYKGRGGGGG]): 3.01 pmol/s
- 5-mer peptide array signal with KalbTG [11]: exhibited relatively lower signal on the KalbTG array
- Array signal (log2) [11]: 7.22 log2
- Reaction rate in solution (pmol/s), GLDH-coupled assay (Z-[GGGFRQRQGGGG]): 3.07 pmol/s
- Reaction rate in solution (pmol/s), GLDH-coupled assay (Z-[GGGRQRQRGGGG]): 2.06 pmol/s
- 5-mer peptide array, incorporation of biotinylated glutamine donor Z-APRYRQRAAGGG-PEG-biotin [12]: the top 17 lysine-donor substrates identified on the 5-mer peptide array with KalbTG
- Array signal (log2) [13]: 12.6 log2
- Array signal (log2) [14]: 12.2 log2
- 5-mer peptide array, incorporation of biotinylated amine donor [15]: the top 22 glutamine-donor substrates identified on the 5-mer peptide array with KalbTG
- Array signal (log2) [15]: 8.93 log2
- 5-mer peptide array, incorporation of biotinylated amine donor [16]: the top 22 glutamine-donor substrates identified on the 5-mer peptide array with KalbTG
- 5-mer peptide array, incorporation of biotinylated glutamine donor Z-APRYRQRAAGGG-PEG-biotin [17]: the top 17 lysine-donor substrates identified on the 5-mer peptide array with KalbTG
- 5-mer peptide array, incorporation of biotinylated glutamine donor Z-APRYRQRAAGGG-PEG-biotin [18]: the top 17 lysine-donor substrates identified on the 5-mer peptide array with KalbTG
- 5-mer peptide array, incorporation of biotinylated glutamine donor Z-APRYRQRAAGGG-PEG-biotin [19]: the top 17 lysine-donor substrates identified on the 5-mer peptide array with KalbTG
- Array signal (log2) [19]: 12.8 log2
- 5-mer peptide array signal with KalbTG [20]: exhibited relatively lower signal on the KalbTG array
- Reaction rate in solution (pmol/s), GLDH-coupled assay (Z-[GGGQYRQRGGGG]): 1.92 pmol/s
- 5-mer peptide array signal with KalbTG [21]: exhibited relatively lower signal on the KalbTG array
